Reference: US20120172293A1 (Takeda / Millennium, published 2012)
Non-standard residues stand in square brackets, D forms with d. No end group written: not given here. *: point of attachment. X11 = ((1S)-1-carboxy-3-methylbutyl)carbamoyl, CC(C)C[C@H](NC(=O)*)C(=O)O; Phe(3-Me) = Cc1cccc(C[C@H](N)C(=O)O)c1; Phe(2-Me) = Cc1ccccc1C[C@H](N)C(=O)O; tBuAla = CC(C)(C)C[C@H](N)C(=O)O; 4Pal = N[C@@H](Cc1ccncc1)C(=O)O; Cha = N[C@@H](CC1CCCCC1)C(=O)O; 4Amb = NCc1ccc(C(=O)O)cc1; Abu = CC[C@H](N)C(=O)O; Aib = CC(C)(N)C(=O)O; Ahx = NCCCCCC(=O)O

B1: Ac-[D-Pro24, Cha27, Leu(Me)28, Lys30, Aib31, Phe(3Me)36]-PYY(23-36) (peptide)
peptide: Ac-S[dP]RH[Cha][tBuAla]NK[Aib]TRQR[Phe(3-Me)]-NH2
SMILES: CC(=O)N[C@@H](CO)C(=O)N1CCC[C@@H]1C(=O)N[C@@H](CCCNC(=N)N)C(=O)N[C@@H](Cc1c[nH]cn1)C(=O)N[C@@H](CC1CCCCC1)C(=O)N[C@@H](CC(C)(C)C)C(=O)N[C@@H](CC(N)=O)C(=O)N[C@@H](CCCCN)C(=O)NC(C)(C)C(=O)N[C@H](C(=O)N[C@@H](CCCNC(=N)N)C(=O)N[C@@H](CCC(N)=O)C(=O)N[C@@H](CCCNC(=N)N)C(=O)N[C@@H](Cc1cccc(C)c1)C(N)=O)[C@@H](C)O
notes: also called compound No. 258
B2: [(1S)-5-Amino-1-carboxypentyl]carbamoyl-[D-Pro24, Cha27,28,36, Aib31]-PYY(23-36) (peptide)
peptide: {((1S)-5-amino-1-carboxypentyl)carbamoyl}-S[dP]RH[Cha][Cha]NL[Aib]TRQR[Cha]-NH2
notes: calculated mass 1980.2 fits the name; also called compound No. 323
B3: Ac-[Arg20, D-Tyr21, D-Pro24, Pya(4)26, Cha27, Aib28,31, Lys30, Phe(3Me)36]-PYY(20-36) (peptide)
peptide: Ac-R[dY]AS[dP]R[4Pal][Cha][Aib]NK[Aib]TRQR[Phe(3-Me)]-NH2
SMILES: CC(=O)N[C@@H](CCCNC(=N)N)C(=O)N[C@H](Cc1ccc(O)cc1)C(=O)N[C@@H](C)C(=O)N[C@@H](CO)C(=O)N1CCC[C@@H]1C(=O)N[C@@H](CCCNC(=N)N)C(=O)N[C@@H](Cc1ccncc1)C(=O)N[C@@H](CC1CCCCC1)C(=O)NC(C)(C)C(=O)N[C@@H](CC(N)=O)C(=O)N[C@@H](CCCCN)C(=O)NC(C)(C)C(=O)N[C@H](C(=O)N[C@@H](CCCNC(=N)N)C(=O)N[C@@H](CCC(N)=O)C(=O)N[C@@H](CCCNC(=N)N)C(=O)N[C@@H](Cc1cccc(C)c1)C(N)=O)[C@@H](C)O
notes: also called compound No. 262
B4: Ac-[D-Tyr21, D-Pro24, Cha27,28,36, Aib31]-PYY(20-36) (peptide)
peptide: Ac-Y[dY]AS[dP]RH[Cha][Cha]NL[Aib]TRQR[Cha]-NH2
SMILES: CC(=O)N[C@@H](Cc1ccc(O)cc1)C(=O)N[C@H](Cc1ccc(O)cc1)C(=O)N[C@@H](C)C(=O)N[C@@H](CO)C(=O)N1CCC[C@@H]1C(=O)N[C@@H](CCCNC(=N)N)C(=O)N[C@@H](Cc1c[nH]cn1)C(=O)N[C@@H](CC1CCCCC1)C(=O)N[C@@H](CC1CCCCC1)C(=O)N[C@@H](CC(N)=O)C(=O)N[C@@H](CC(C)C)C(=O)NC(C)(C)C(=O)N[C@H](C(=O)N[C@@H](CCCNC(=N)N)C(=O)N[C@@H](CCC(N)=O)C(=O)N[C@@H](CCCNC(=N)N)C(=O)N[C@@H](CC1CCCCC1)C(N)=O)[C@@H](C)O
notes: also called compound No. 355
B5: Ac-[D-Pro24, Cha27, Leu(Me)28, Lys30, Aib31, Phe(2Me)36]-PYY(23-36) (peptide)
peptide: Ac-S[dP]RH[Cha][tBuAla]NK[Aib]TRQR[Phe(2-Me)]-NH2
SMILES: CC(=O)N[C@@H](CO)C(=O)N1CCC[C@@H]1C(=O)N[C@@H](CCCNC(=N)N)C(=O)N[C@@H](Cc1c[nH]cn1)C(=O)N[C@@H](CC1CCCCC1)C(=O)N[C@@H](CC(C)(C)C)C(=O)N[C@@H](CC(N)=O)C(=O)N[C@@H](CCCCN)C(=O)NC(C)(C)C(=O)N[C@H](C(=O)N[C@@H](CCCNC(=N)N)C(=O)N[C@@H](CCC(N)=O)C(=O)N[C@@H](CCCNC(=N)N)C(=O)N[C@@H](Cc1ccccc1C)C(N)=O)[C@@H](C)O
notes: also called compound No. 255
B6: [Ile22,28,31, Lys23, Acp24, Ala26]-PYY(22-36) (peptide)
peptide: IK[Ahx]RAYINLITRQRY-NH2
modifications: N-terminus assumed
SMILES: CC[C@H](C)[C@H](N)C(=O)N[C@@H](CCCCN)C(=O)NCCCCCC(=O)N[C@@H](CCCNC(=N)N)C(=O)N[C@@H](C)C(=O)N[C@@H](Cc1ccc(O)cc1)C(=O)N[C@H](C(=O)N[C@@H](CC(N)=O)C(=O)N[C@@H](CC(C)C)C(=O)N[C@H](C(=O)N[C@H](C(=O)N[C@@H](CCCNC(=N)N)C(=O)N[C@@H](CCC(N)=O)C(=O)N[C@@H](CCCNC(=N)N)C(=O)N[C@@H](Cc1ccc(O)cc1)C(N)=O)[C@@H](C)O)[C@@H](C)CC)[C@@H](C)CC
notes: also called compound No. 353
B7: 4-Aminomethylbenzoyl-[Ala26, ILe28,31, Abu32]-PYY(25-36) (peptide)
peptide: [4Amb]RAYINLI[Abu]RQRY-NH2
modifications: N-terminus assumed
SMILES: CC[C@H](NC(=O)[C@@H](NC(=O)[C@H](CC(C)C)NC(=O)[C@H](CC(N)=O)NC(=O)[C@@H](NC(=O)[C@H](Cc1ccc(O)cc1)NC(=O)[C@H](C)NC(=O)[C@H](CCCNC(=N)N)NC(=O)c1ccc(CN)cc1)[C@@H](C)CC)[C@@H](C)CC)C(=O)N[C@@H](CCCNC(=N)N)C(=O)N[C@@H](CCC(N)=O)C(=O)N[C@@H](CCCNC(=N)N)C(=O)N[C@@H](Cc1ccc(O)cc1)C(N)=O
notes: also called compound No. 354
B8: [(1S)-1-carboxy-3-methylbutyl]carbamoyl-[D-Pro24, Cha27,36, Leu(Me)28, Lys30, Aib31]-PYY(23-36) (peptide)
peptide: X11-S[dP]RH[Cha][tBuAla]NK[Aib]TRQR[Cha]-NH2
SMILES: CC(C)C[C@H](NC(=O)N[C@@H](CO)C(=O)N1CCC[C@@H]1C(=O)N[C@@H](CCCNC(=N)N)C(=O)N[C@@H](Cc1c[nH]cn1)C(=O)N[C@@H](CC1CCCCC1)C(=O)N[C@@H](CC(C)(C)C)C(=O)N[C@@H](CC(N)=O)C(=O)N[C@@H](CCCCN)C(=O)NC(C)(C)C(=O)N[C@H](C(=O)N[C@@H](CCCNC(=N)N)C(=O)N[C@@H](CCC(N)=O)C(=O)N[C@@H](CCCNC(=N)N)C(=O)N[C@@H](CC1CCCCC1)C(N)=O)[C@@H](C)O)C(=O)O
notes: also called compound No. 253
B9: Ac-[Arg20, D-Tyr21, D-Pro24, Pya(4)26, Cha27, Aib28,31, Lys30, Phe(2Me)36]-PYY(20-36) (peptide)
peptide: Ac-R[dY]AS[dP]R[4Pal][Cha][Aib]NK[Aib]TRQR[Phe(2-Me)]-NH2
SMILES: CC(=O)N[C@@H](CCCNC(=N)N)C(=O)N[C@H](Cc1ccc(O)cc1)C(=O)N[C@@H](C)C(=O)N[C@@H](CO)C(=O)N1CCC[C@@H]1C(=O)N[C@@H](CCCNC(=N)N)C(=O)N[C@@H](Cc1ccncc1)C(=O)N[C@@H](CC1CCCCC1)C(=O)NC(C)(C)C(=O)N[C@@H](CC(N)=O)C(=O)N[C@@H](CCCCN)C(=O)NC(C)(C)C(=O)N[C@H](C(=O)N[C@@H](CCCNC(=N)N)C(=O)N[C@@H](CCC(N)=O)C(=O)N[C@@H](CCCNC(=N)N)C(=O)N[C@@H](Cc1ccccc1C)C(N)=O)[C@@H](C)O
notes: also called compound No. 261

Molecular target: T1, human Y2 receptor (human), P49146
T1 chain: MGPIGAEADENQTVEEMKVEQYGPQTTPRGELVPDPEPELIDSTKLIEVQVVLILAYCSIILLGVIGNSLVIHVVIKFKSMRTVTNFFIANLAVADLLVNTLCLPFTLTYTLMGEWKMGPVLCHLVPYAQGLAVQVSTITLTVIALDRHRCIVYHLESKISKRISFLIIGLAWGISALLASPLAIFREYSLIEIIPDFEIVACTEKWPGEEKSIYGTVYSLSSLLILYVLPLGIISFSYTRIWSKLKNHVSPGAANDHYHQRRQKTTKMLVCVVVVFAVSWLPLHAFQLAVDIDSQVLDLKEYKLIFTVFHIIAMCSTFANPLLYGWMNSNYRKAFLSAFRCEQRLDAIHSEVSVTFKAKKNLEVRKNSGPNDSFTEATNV
Experiment: RBA: [125I]-PYY displacement, hY2R/CHO membranes

Binder | IC50 Ratio (vs PYY(3-36))
[4Amb]RAYINLVTRQRY (ends and bridges not checked) [4-Aminomethylbenzoyl-[Ala26, Ile28, VAl31]-PYY(25-36)] | 7.2

molecular target: T2, human Y2 receptor (human, UniProt P49146 1-381); experiment: cell-based or functional assay
T2 sequence (looked up): T1 chain

Binder | GBA EC50 Ratio ([35S]GTPγS binding)
B1 | 0.78 EC50 compound/EC50 PYY(3-36)
B2 | 0.95 EC50 compound/EC50 PYY(3-36)
B3 | 1.7 EC50 compound/EC50 PYY(3-36)
B4 | 1.1 EC50 compound/EC50 PYY(3-36)
B5 | 0.86 EC50 compound/EC50 PYY(3-36)
B6 | 4.8 EC50 compound/EC50 PYY(3-36)
B7 | 33 EC50 compound/EC50 PYY(3-36)
B8 | 0.85 EC50 compound/EC50 PYY(3-36)
B9 | 0.81 EC50 compound/EC50 PYY(3-36)

molecular target: T2, human Y2 receptor; experiment: RBA: displacement of [125I]-PYY from hY2R/CHO membranes
Description: After incubation at room temperature for 60 minutes, the mixture was filtered through the cell harvester FilterMate (PerkinElmer) using UniFilter-96 GF/C treated with polyethylenimine (PEI) solution (20 mM Tris, 0.3% PEI, pH 7.4), and the filter was washed 3 times with a filtering buffer (50 mM Tris, 5 mM MgCl₂, 150 mM NaCl, 0.03% NaN₃, 0.05% CHAPS, pH 7.4). Thereafter, UniFilter-96 GF/C was dried in a mechanical drier for 1 hour, 15 μl of the liquid scintillator MicroScint O (PerkinElmer) was added to each well, and a measurement was taken using TopCount (PerkinElmer). The data obtained were analyzed using Prism to calculate the IC₅₀ value.

Binder | IC50 Ratio
B1 | 0.61 IC50 compound/IC50 PYY(3-36)
B2 | 1.3 IC50 compound/IC50 PYY(3-36)
B3 | 0.5 IC50 compound/IC50 PYY(3-36)
B4 | 1.4 IC50 compound/IC50 PYY(3-36)
B5 | 0.8 IC50 compound/IC50 PYY(3-36)
B6 | 9.1 IC50 compound/IC50 PYY(3-36)
B7 | 68 IC50 compound/IC50 PYY(3-36)
B8 | 1.1 IC50 compound/IC50 PYY(3-36)
B9 | 0.54 IC50 compound/IC50 PYY(3-36)

Molecular target: T1, human Y2 receptor (human), P49146
Experiment: cell-based or functional assay

Binder | GBA EC50 Ratio (vs PYY(3-36)), [35S]GTPγS
[4Amb]RAYINLVTRQRY (ends and bridges not checked) [4-Aminomethylbenzoyl-[Ala26, Ile28, VAl31]-PYY(25-36)] | 4
